The source of these data is the Immune Epitope Database (IEDB).

Broadly, the Kd is the equilibrium constant for the complex coming apart.

Among the targets are HLA-A*02:03; HLA-A*02:06; HLA-A*02:02; HLA-A*31:01; HLA-A*11:01; HLA-A*33:01; HLA-A*68:01; HLA-A*03:01.
What all share (experiment): IEDB peptide-MHC binding, purified MHC/competitive/radioactivity; filed as Kd, often an IC50 or EC50 that approximates it; ≥ and ≤ were set here for values at or beyond the usual limits of such assays
[1] abbreviates: source organism: Vaccinia virus WR.
[2] abbreviates: source organism: Dengue virus 4 Dominica/814669/1981.
Setting [3] is: source organism: Dengue virus 3 Martinique/1243/1999.
Setting [4] is: source organism: Mammarenavirus tacaribeense.
Setting [5] is: source organism: Dengue virus 1 Brazil/97-11/1997.
Where [6] appears, read: source organism: Dengue virus 4 Philippines/H241/1956.
Setting [7] is: source organism: SARS coronavirus Tor2.

On to ETIQKDINIT, for which the Kd in the assay with HLA-A*02:03 (setting [1]) turned out to be 10.1 nM; with HLA-A*02:06 (setting [1]), 112 nM; with HLA-A*02:02 (setting [1]) it was 354 nM.
In the same order, the values of TVDFTDCRTI are 10400 nM, 10600 nM and at least 31800 nM.
As to DLEALKKETI, the Kd in the assay with HLA-A*02:06 (source organism: Homo sapiens) is at least 97400 nM.
For the sequence KIEDLINQLV, the dissociation constant Kd with HLA-A*02:03 (setting [1]) turned out to be 70.8 nM; with HLA-A*02:06 (setting [1]) it was 145 nM; with HLA-A*02:02 (setting [1]), 87 nM.
As to KLLNMRDLI, the values for the dissociation constant Kd in the assay with HLA-A*02:03 (setting [1]), with HLA-A*02:06 (setting [1]) and with HLA-A*02:02 (setting [1]) were 329 nM, 43.8 nM and 496 nM, respectively.
In the same order, the values of TIVSRSSRGV are 11.1 nM, 3740 nM and 4700 nM.
In the case of ILNAHKDGV, in the assay with HLA-A*02:03 (setting [2]), the Kd came to 329 nM.
As to KVDNFTMGV, in the assay with HLA-A*02:06 (setting [3]), the dissociation constant Kd was determined as 4.24 nM.
Turning to YNCKCCWFA, the figures for the dissociation constant Kd with HLA-A*02:03 (setting [4]), in the assay with HLA-A*02:06 (setting [4]) and with HLA-A*02:02 (setting [4]) were at least 31800 nM, at least 77000 nM and 16000 nM, respectively.
On to CVDIFTEGKI, for which the dissociation constant (Kd) is 17500 nM with HLA-A*02:03 (setting [1]), at least 20900 nM with HLA-A*02:06 (setting [1]) and at least 70000 nM in the assay with HLA-A*02:02 (setting [1]).
Consider TQHGTILIKV, for which the equilibrium dissociation constant (Kd) with HLA-A*02:06 (setting [3]) was 526 nM.
For the sequence ELAAHQKKIL, the Kd with HLA-A*02:03 (source organism: Homo sapiens) came out at 19000 nM.
For GINNVQSLI, the Kd was found to be 378 nM in the assay with HLA-A*02:03 (setting [1]), 1730 nM in the assay with HLA-A*02:06 (setting [1]) and 474 nM with HLA-A*02:02 (setting [1]).
Consider AMHSALAGA, for which the equilibrium dissociation constant (Kd) in the assay with HLA-A*02:03 (setting [2]) was found to be 8.58 nM.
As to FKMRPMFAV, the dissociation constant (Kd) with HLA-A*02:06 (setting [5]) came to 55.5 nM.
As for NLKYSVIVTV, in the assay with HLA-A*02:03 (setting [5]), the dissociation constant (Kd) was determined as 5.6 nM.
In the case of AIVLEFFMMV, in the assay with HLA-A*02:06 (setting [3]), the dissociation constant (Kd) is 7.87 nM.
In the case of YVLGVFLRKL, in the assay with HLA-A*02:06 (setting [2]), the equilibrium dissociation constant (Kd) came out at 81.5 nM.
As for LMLVTPSMTM, the dissociation constant Kd with HLA-A*02:06 (setting [3]) came to 974 nM.
Turning to RVILAGPIPV, the Kd is 8.4 nM in the assay with HLA-A*02:03 (setting [6]) and 33.5 nM with HLA-A*02:06 (setting [6]).
With FQRALIFIL, in the assay with HLA-A*02:06 (source organism: Dengue virus 2 Jamaica/1409/1983), the Kd is 16.9 nM.
With KLRDSYTQV, the Kd in the assay with HLA-A*02:03 (source organism: Dengue virus 1 Nauru/West Pac/1974) is 16 nM.
In the case of IVHSYLKNYK, the dissociation constant (Kd) with HLA-A*31:01 (setting [1]) came out at 27.5 nM; with HLA-A*11:01 (setting [1]), 58 nM; with HLA-A*33:01 (setting [1]) it was 9720 nM; with HLA-A*68:01 (setting [1]) it was 257 nM; in the assay with HLA-A*03:01 (setting [1]), 97.3 nM.
In the same order, the values of ATIQRFSSLR are 0.626 nM, 4.64 nM, 244 nM, 6.84 nM and 23.4 nM.
In the same order, the values of EANASAQTK are at least 56300 nM, 2600 nM, 12500 nM, 27.3 nM and 1560 nM.
For the sequence KIKTNDINVR, the Kd with HLA-A*31:01 (setting [1]) was 103 nM; with HLA-A*11:01 (setting [1]), 11300 nM; with HLA-A*33:01 (setting [1]) it was at least 21000 nM; with HLA-A*68:01 (setting [1]), 9080 nM; with HLA-A*03:01 (setting [1]) it was 2910 nM.
In the same order, the values of ALINLVQYR are 137 nM, 3920 nM, 17400 nM, 258 nM and 6500 nM.
Consider AQPLPQRQKK, for which the dissociation constant (Kd) in the assay with HLA-A*31:01 (setting [7]) was at least 32700 nM; with HLA-A*11:01 (setting [7]) it was 1230 nM; with HLA-A*33:01 (setting [7]), at least 27500 nM; with HLA-A*68:01 (setting [7]) it was at least 70200 nM; with HLA-A*03:01 (setting [7]) it was at least 33400 nM.
As for KTSKTTILSK, the Kd in the assay with HLA-A*31:01 (setting [1]) is 311 nM; with HLA-A*11:01 (setting [1]) it was 96.4 nM; in the assay with HLA-A*33:01 (setting [1]), at least 70000 nM; with HLA-A*68:01 (setting [1]), 3960 nM; with HLA-A*03:01 (setting [1]) it was 44.4 nM.
In the same order, the values of AALDGTFQR are 36.4 nM, 2.62 nM, 177 nM, 1.95 nM and 6210 nM.
In the same order, the values of NIAEYIAGLK are at least 70000 nM, 518 nM, at least 25200 nM, 14.5 nM and 132 nM.
For FMTATPPGTA, the dissociation constant (Kd) in the assay with HLA-A*02:03 (setting [3]) worked out at 2.17 nM.
With SQNPLAELK, the dissociation constant Kd with HLA-A*31:01 (setting [7]) is 3700 nM; with HLA-A*11:01 (setting [7]), 306 nM; in the assay with HLA-A*33:01 (setting [7]), at least 48100 nM; with HLA-A*68:01 (setting [7]), at least 63100 nM; with HLA-A*03:01 (setting [7]), at least 22700 nM.
For MLYQLLEAVY, the Kd in the assay with HLA-A*31:01 (setting [1]) was 10800 nM; in the assay with HLA-A*11:01 (setting [1]), 13700 nM; with HLA-A*33:01 (setting [1]) it was 15700 nM; with HLA-A*68:01 (setting [1]), 3350 nM; in the assay with HLA-A*03:01 (setting [1]), 1460 nM.
